{"source": "patent US20230056230A1", "key": {"[1]": {"target": "PD-1 and LAG-3 on CD4+ and CD8+ cells of patients' peripheral blood", "experiment": "receptor occupancy by flow cytometry on patients' whole blood, CD4+ cells; Emax model"}, "[2]": {"target": "PD-1 and LAG-3 on CD4+ and CD8+ cells of patients' peripheral blood", "experiment": "receptor occupancy by flow cytometry on patients' whole blood, CD8+ cells; Emax model"}, "[3]": {"target": "PD-1 and LAG-3 on CD4+ and CD8+ cells of patients' peripheral blood", "experiment": "receptor occupancy by flow cytometry on patients' whole blood, CD4+ cells; Emax model of % binding against DART-I concentration"}, "[4]": {"target": "PD-1 and LAG-3 on CD4+ and CD8+ cells of patients' peripheral blood", "experiment": "receptor occupancy by flow cytometry on patients' whole blood, CD8+ cells; Emax model of % binding against DART-I concentration"}}}
{"binder": "DART-I (bispecific antibody, human IgG4 S228P) chain 1: DIQMTQSPSSLSASVGDRVTITCRASQDVSSVVAWYQQKPGKAPKLLIYSASYRYTGVPSRFSGSGSGTDFTLTISSLQPEDFATYYCQQHYSTPWTFGGGTKLEIKGGGSGGGGQVQLVQSGAEVKKPGASVKVSCKASGYSFTSYWMNWVRQAPGQGLEWIGVIHPSDSETWLDQKFKDRVTITVDKSTSTAYMELSSLRSEDTAVYYCAREHYGTSPFAYWGQGTLVTVSSGGCGGGEVAACEKEVAALEKEVAALEKEVAALEKESKYGPPCPPCPAPEFLGGPSVFLFPPKPKDTLYITREPEVTCVVVDVSQEDPEVQFNWYVDGVEVHNAKTKPREEQFNSTYRVVSVLTVLHQDWLNGKEYKCKVSNKGLPSSIEKTISKAKGQPREPQVYTLPPSQEEMTKNQVSLTCLVKGFYPSDIAVEWESNGQPENNYKTTPPVLDSDGSFFLYSRLTVDKSRWQEGNVFSCSVMHEALHNHYTQKSLSLSLG chain 2: EIVLTQSPATLSLSPGERATLSCRASESVDNYGMSFMNWFQQKPGQPPKLLIHAASNQGSGVPSRFSGSGSGTDFTLTISSLEPEDFAVYFCQQSKEVPYTFGGGTKVEIKGGGSGGGGQVQLVQSGAEVKKPGASVKVSCKASGYTFTDYNMDWVRQAPGQGLEWMGDINPDNGVTIYNQKFEGRVTMTTDTSTSTAYMELRSLRSDDTAVYYCAREADYFYFDYWGQGTTLTVSSGGCGGGKVAACKEKVAALKEKVAALKEKVAALKE", "values": [{"measurement": "concentration at which 90% of max RO is achieved", "setting": "[1]", "value": 0.6, "unit": "µg/mL"}, {"measurement": "concentration at which 90% of max RO is achieved", "setting": "[2]", "value": 0.1, "unit": "µg/mL"}, {"measurement": "EC50", "setting": "[3]", "value": 0.045, "unit": "µg/mL"}, {"measurement": "EC50", "setting": "[4]", "value": 0.011, "unit": "µg/mL"}]}
